*1 amine or outer side, *2 acyl side, *3 side chain or, on linkers, in order; H or OH if unused. Bridges are numbered along the chain shown (N, C = ends). Where no end group is shown, it is not given here. [ ]: non-standard residue; d: D form. PYA = propargyl-acid (alkyne used for click attachment); TATA = O=C(CC[*:1])N1CN(C(=O)CC[*:2])CN(C(=O)CC[*:3])C1; tBuAla = CC(C)(C)C[C@H](N)C(=O)O; Nle = CCCC[C@H](N)C(=O)O

Assay [1] has as its target T1, CD137 (Homo sapiens, UniProt Q07011).
T1 construct: Human peripheral blood mononuclear cells (PBMCs) were isolated from buffy coats from two donors; endogenous in cells
The assay is described as follows: Fluorescent multimers human T-cell competition (receptor occupancy) assay with BCY7340 as labelling reagent. To be noted: unlabelled multimer titrated, 30 minutes at room temperature; 10 nM BCY7340 label; FIG. 5. Format: binding. As to the method:
Human PBMCs were isolated from fresh buffy coats from two donors according to standard protocols. CD8+ T cells were then isolated from the PBMCs by negative magnetic bead selection with a MACS CD8+ T cell isolation kit (negative bead selection) according to the manufacturer's protocol (Miltenyi Biotec). Purified CD8+ T cells were then stimulated for 72 hours in plates coated with CD3 antibody (1 μg/ml) in R10 media (RPMI1640+10% FBS+1× Pen-Strep). Cells were then incubated with a range of concentrations of unlabelled CD137 multimer for 30 minutes at room temperature in 2% FBS. Cells were then washed and stained for FACS analysis. Briefly, cells were stained in 1× Live/Dead BV510 for 15 minutes, washed, and then surface stained with a primary antibody cocktail (CD8-BV785, CD3-BV605, and CD137-PECy5) that included a saturating concentration (10 nM) of BCY7340. Cells were incubated for 30 minutes at room temperature, washed, and fixed in 2% PFA. Cells were run on the BD FACSCelesta and FCS files were analyzed in FlowJo. Cells were gated on Single/Live/Lymphocytes/CD8+(or CD3+)/CD137+ or CD137−. The Alexa Fluor 488 geometric mean of the CD137+ population is shown.

Assay [2] deals with T2, human CD137 (human, UniProt Q07011 24-255).
T2 construct: whole, on cells; Endogenous receptor on CD3-stimulated human PBMCs or purified CD8+ T cells; also called CD137 receptor; 4-1BB
T2 sequence (Q07011 24-255): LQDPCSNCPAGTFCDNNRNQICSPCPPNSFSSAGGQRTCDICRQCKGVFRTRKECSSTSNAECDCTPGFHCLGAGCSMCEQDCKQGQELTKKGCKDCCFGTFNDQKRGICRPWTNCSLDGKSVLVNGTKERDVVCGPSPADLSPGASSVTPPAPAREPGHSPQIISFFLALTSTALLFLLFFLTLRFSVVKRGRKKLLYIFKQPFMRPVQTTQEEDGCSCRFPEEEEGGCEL
Briefly: flow cytometry on CD3-stimulated human PBMCs, apparent affinity (kd,app), CD4+ CD137+ population, donor 214026. As to the method:
(§1) Plates were then incubated for 1 hour at 37° C., 5% CO₂. Post-incubation, plate was centrifuged at 500 rpm for 5 minutes and supernatant discarded. Samples were then washed once in 200 μL of 1× phosphate buffer saline (PBS; Gibco™ 10-010-023) at 500 rpm for 5 minutes. Cells were resuspended in 200 μL of PBS and transferred to a 96-well V-bottom polypropylene plate (Greiner Bio-One 651201). Samples were then centrifuged at 500 rpm for 5 minutes and supernatant was discarded.
(§2) Preparation of samples for flow cytometry: Zombie Violet™ Fixable Viability Dye (BioLegend® 423113) was prepared as a 1:1000 dilution in PBS and 100 μL of viability dye was added to each well and incubated in the dark at 4° C. for 30 minutes. Subsequently, wells were washed with 100 μL of PBS for 5 minutes at 500 rpm and supernatant was discarded. […] Cells resuspended in 200 μL of stain buffer were kept at 4° C. and in the dark until read by BD FACSCelesta™ flow cytometer and FCS files were analyzed in FlowJo™.
(§3) Cells were gated on lymphocytes→singlets→live→CD4+ or CD8+→CD137+/− and the geometric mean of Alexa Fluor® 488 (conjugated to BCY15416) was calculated from the CD137+ and CD137− populations shown below. […] Calculated binding affinity (kd,app) for each donor appear in Table 5. […]
On the technique in general: A flow cytometer gives signals particle by particle.

Assay [3] has as its target T2, human CD137. The assay is described as follows: flow cytometry on CD3-stimulated human PBMCs, apparent affinity (kd,app), CD4+ CD137+ population, donor 214047. Here is the method:
as §1, §2, §3

For assay [4], the target named is T2, human CD137. Briefly: flow cytometry on CD3-stimulated human PBMCs, apparent affinity (kd,app), CD4+ CD137+ population, donor 217071. As to the method: as §1, §2, §3
In assay [5] the target is T2, human CD137. Briefly: flow cytometry on CD3-stimulated human PBMCs, apparent affinity (kd,app), CD8+ CD137+ population, donor 214026. Here is the method:
as §1, §2, §3

The target of assay [6] is T2, human CD137. Briefly: flow cytometry on CD3-stimulated human PBMCs, apparent affinity (kd,app), CD8+ CD137+ population, donor 214047. As to the method:
as §1, §2, §3

Assay [7] addresses T2, human CD137. Briefly: flow cytometry on CD3-stimulated human PBMCs, apparent affinity (kd,app), CD8+ CD137+ population, donor 217071. As to the method:
as §1, §2, §3

T1 sequence (Q07011 24-255): as above

For “BCY8945: Non-modified CD137 multimer: 4 x BCY8927, hinge A, SA n=23, attachment Lys(PYA)3 (Ac-C[tBuAla]PK[dA]PYCFADPY[Nle]CA-NH2; linker 1-8-15 via TATA; not fully specified (residue 4); also: tetramer: 4 peptides on central hinge moiety A via spacer SA n=23)”, the “level of free/unbound CD137 receptor on human T cells (BCY7340 binding)” value in assay [1] was “dose responsive decrease in unbound CD137 receptor”.

B1: BCY15416 (peptide)
peptide: Ac-C[tBuAla]PE[dK](PYA)PYCFADPY[Nle]CA
modifications: linker 1-8-15 via TATA; also: dimer: joined through PYA directly to central hinge moiety D, Alexa Fluor 488 on the hinge without spacer (formula (II))
notes: also called fluorescently labelled CD137 dimer; CD137 dimer
On to B1, for which the Kd worked out at 0.875 nM in assay [2]; 0.144 nM in assay [3]; 0.13 nM in assay [4]; 0.114 nM in assay [5]; 0.118 nM in assay [6]; 0.13 nM in assay [7].
